Values of other authors, collected in article PMC11211486.

Assays:
MepS (Escherichia coli) = MepS (Escherichia coli) (UniProt P0AFV4)
PBP4 (Escherichia coli) = PBP4 (Escherichia coli) (UniProt P24228)
MepM (Escherichia coli) = MepM (Escherichia coli) (UniProt P0AFS9)

Measured: Kd

NlpI, sequence (C4ZSQ4 19-294): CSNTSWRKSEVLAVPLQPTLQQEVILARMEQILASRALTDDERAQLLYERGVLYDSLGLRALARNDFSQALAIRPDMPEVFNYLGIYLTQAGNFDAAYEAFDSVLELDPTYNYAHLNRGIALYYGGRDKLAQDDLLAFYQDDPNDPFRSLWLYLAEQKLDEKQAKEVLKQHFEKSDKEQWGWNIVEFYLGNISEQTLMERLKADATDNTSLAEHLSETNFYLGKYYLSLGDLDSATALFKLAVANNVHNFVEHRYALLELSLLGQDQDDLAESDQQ
MepM (Escherichia coli), sequence (P0AFS9 whole entry): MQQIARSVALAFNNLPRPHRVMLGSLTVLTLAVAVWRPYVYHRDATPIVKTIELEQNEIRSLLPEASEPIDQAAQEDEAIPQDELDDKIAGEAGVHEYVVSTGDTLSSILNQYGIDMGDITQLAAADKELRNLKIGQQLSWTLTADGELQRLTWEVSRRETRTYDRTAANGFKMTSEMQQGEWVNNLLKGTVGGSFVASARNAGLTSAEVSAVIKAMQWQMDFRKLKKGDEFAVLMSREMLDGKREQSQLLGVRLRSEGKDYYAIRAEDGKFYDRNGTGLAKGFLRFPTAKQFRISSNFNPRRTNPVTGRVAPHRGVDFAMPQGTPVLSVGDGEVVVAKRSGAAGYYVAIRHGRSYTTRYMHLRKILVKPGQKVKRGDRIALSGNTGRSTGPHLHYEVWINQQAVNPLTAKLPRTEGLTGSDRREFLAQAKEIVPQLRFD
PBP4 (Escherichia coli), sequence (P24228 21-477): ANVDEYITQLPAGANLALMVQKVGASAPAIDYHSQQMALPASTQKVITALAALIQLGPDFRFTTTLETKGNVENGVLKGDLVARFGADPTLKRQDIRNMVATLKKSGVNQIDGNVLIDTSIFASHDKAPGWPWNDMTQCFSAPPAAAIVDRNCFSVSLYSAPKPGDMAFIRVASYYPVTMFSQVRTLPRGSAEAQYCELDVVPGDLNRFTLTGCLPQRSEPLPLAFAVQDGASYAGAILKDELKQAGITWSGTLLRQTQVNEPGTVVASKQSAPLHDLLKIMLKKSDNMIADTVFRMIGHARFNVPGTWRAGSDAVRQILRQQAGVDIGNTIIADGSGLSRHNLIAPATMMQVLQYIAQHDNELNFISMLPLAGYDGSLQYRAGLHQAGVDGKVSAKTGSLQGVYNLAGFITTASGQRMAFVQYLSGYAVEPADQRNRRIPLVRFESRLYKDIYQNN
MepS (Escherichia coli), sequence (P0AFV4 27-188): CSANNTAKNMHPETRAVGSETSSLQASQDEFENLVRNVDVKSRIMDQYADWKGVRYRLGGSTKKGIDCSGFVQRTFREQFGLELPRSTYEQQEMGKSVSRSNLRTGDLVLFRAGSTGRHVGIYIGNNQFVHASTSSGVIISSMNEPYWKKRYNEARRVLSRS

NlpI (from UniProt C4ZSQ4)
150 nM: all assays above
